Results: US12552850B2, “GLP-1/GIP dual agonist, long-acting conjugate thereof, and pharmaceutical composition comprising same” (HANMI PHARM. CO., LTD., priority 2020, dated 2026)
Square brackets hold non-standard residues; d marks the D form. Ends that are not written are not given here. Aib = CC(C)(N)C(=O)O

Assays:
human GIP receptor = target: T1, human GIP receptor (Homo sapiens, UniProt P48546); assay: In vitro cAMP activity in human GIP receptor-expressing CHO cells (LANCE cAMP kit); format: cell-based; conditions: long-acting conjugates (peptide-PEG-immunoglobulin Fc); relative titer from cAMP EC50, human GIP receptor CHO cells
T1 construct: expressed in transfected cells; host or cells: Chinese hamster ovary (CHO)
T1 sequence (P48546 22-466): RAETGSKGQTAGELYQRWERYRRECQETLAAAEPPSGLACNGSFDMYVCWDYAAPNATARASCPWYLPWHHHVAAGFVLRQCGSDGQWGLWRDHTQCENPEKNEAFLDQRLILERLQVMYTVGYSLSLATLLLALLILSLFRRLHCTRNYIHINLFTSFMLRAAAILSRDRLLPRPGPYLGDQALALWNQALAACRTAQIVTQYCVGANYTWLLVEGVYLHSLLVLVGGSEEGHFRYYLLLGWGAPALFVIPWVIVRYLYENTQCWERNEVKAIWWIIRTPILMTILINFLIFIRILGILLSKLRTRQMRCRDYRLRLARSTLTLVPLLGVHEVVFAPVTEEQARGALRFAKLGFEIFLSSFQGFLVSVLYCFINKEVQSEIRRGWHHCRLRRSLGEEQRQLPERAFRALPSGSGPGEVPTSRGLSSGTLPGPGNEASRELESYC
Method: (§1) In order to measure the activity of the GLP-1/GIP dual agonist prepared in Example 1, an in vitro cell activity was measured using cell lines transformed with the GLP-1 receptor and the GIP receptor, respectively. The cell lines are transformed to express human GLP-1 and human GIP receptor genes in Chinese hamster ovary (CHO), respectively, and are suitable for measuring the activities of GLP-1 and GIP. Therefore, the activity for each part was measured using each transformed cell line.
(§2) To measure the GIP activity of the dual agonist prepared in Example 1, human GIP was diluted from 50 nM to 0.000095 nM by 4-fold serial dilution, and the dual agonist prepared in Example 1 was diluted from 50 nM to 0.000048 nM by 4-fold serial dilution. The culture medium was removed from the cultured human GIP receptor-expressing CHO cells, 5 μl of each of the serially diluted materials was added to the cells, and then 5 μl of buffer containing cAMP antibody was added to the cells, followed by 15 minutes of incubation at room temperature. Then, cells were lysed by adding 10 μl of detection mix containing cell lysis buffer, and reacted at room temperature for 90 minutes. The cell lysate after the reaction had been completed, was applied to the LANCE cAMP kit (PerkinElmer, USA) to calculate the EC50 value through the accumulated cAMP, and then compared with each other.
(§3) In order to measure the activity of the long-acting conjugate of SEQ ID NOs: 20, 36, and 40 prepared in Example 3, the cell activity in vitro was measured using cell lines transformed with the GLP-1 receptor and the GIP receptor, respectively, in the same manner as in Example 2.
(§4) The cell lines were transformed to express the human GLP-1 receptor and the human GIP receptor genes in Chinese hamster ovary (CHO), respectively, and were each the same cell line used in Example 2. Activity for each part was measured using each transformed cell line. […]

human GLP-1 receptor = target: T2, human GLP-1 receptor (Homo sapiens, UniProt P43220); assay: In vitro cAMP activity in human GLP-1 receptor-expressing CHO cells (LANCE cAMP kit); format: cell-based; conditions: long-acting conjugates (peptide-PEG-immunoglobulin Fc); relative titer from cAMP EC50, human GLP-1 receptor CHO cells
T2 construct: expressed in transfected cells; host or cells: Chinese hamster ovary (CHO)
T2 sequence (P43220 24-463): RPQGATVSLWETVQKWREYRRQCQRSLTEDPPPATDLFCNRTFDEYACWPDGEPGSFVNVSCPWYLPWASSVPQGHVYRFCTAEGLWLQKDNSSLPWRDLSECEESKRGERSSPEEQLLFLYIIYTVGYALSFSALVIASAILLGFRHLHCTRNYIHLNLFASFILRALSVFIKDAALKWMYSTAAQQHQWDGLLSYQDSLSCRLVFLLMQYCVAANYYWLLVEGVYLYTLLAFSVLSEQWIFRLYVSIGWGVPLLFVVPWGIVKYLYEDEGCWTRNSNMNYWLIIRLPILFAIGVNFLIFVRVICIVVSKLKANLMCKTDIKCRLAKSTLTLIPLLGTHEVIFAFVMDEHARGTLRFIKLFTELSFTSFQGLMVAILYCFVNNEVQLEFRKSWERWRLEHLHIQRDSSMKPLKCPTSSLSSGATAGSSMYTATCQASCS
Method: as §1
as §2, with “GLP-1” for “GIP”, “0.000048” for “0.000095”
as §3, §4

Row | Substance | In vitro activity compared to native peptide (%) vs human GIP (human GIP receptor) [%] | In vitro activity compared to native peptide (%) vs human GLP-1 (human GLP-1 receptor) [%]
1 | 20 (Y[Aib]EGTFTSDYSI[Aib]LDKQAA[Aib]AFVQWLIAGGPSSGAPPPSC) [compound 20] | 62.1 | 7.5
2 | 40 (Y[Aib]EGTFTSDYSIALEKQAQRDFVNWLLAGGPSSGAPPPSC) [compound 40] | 24.7 | 10.1
3 | 36 (Y[Aib]EGTFTSDYSI[Aib]LDKQAQQAFVQWLIAGGPSSGAPPPSC) [compound 36] | 26.9 | 3.9
